# In patent US20240245800A1, “HIGHLY SPECIFIC RABBIT SINGLE -DOMAIN ANTIBODIES FOR DRUG DELIVERY IN IMMUNOTHERAPY APPLICATIONS” (TECHNOPHAGE, INVESTIGAÇÃO E DESENVOLVIMENTO EM …, priority 2021, published 2024):
# Biological target: T1, Human Topoisomerase I (Homo sapiens, UniProt P11387)
# T1 construct: purchased Topogen
# T1 sequence (P11387 1-765): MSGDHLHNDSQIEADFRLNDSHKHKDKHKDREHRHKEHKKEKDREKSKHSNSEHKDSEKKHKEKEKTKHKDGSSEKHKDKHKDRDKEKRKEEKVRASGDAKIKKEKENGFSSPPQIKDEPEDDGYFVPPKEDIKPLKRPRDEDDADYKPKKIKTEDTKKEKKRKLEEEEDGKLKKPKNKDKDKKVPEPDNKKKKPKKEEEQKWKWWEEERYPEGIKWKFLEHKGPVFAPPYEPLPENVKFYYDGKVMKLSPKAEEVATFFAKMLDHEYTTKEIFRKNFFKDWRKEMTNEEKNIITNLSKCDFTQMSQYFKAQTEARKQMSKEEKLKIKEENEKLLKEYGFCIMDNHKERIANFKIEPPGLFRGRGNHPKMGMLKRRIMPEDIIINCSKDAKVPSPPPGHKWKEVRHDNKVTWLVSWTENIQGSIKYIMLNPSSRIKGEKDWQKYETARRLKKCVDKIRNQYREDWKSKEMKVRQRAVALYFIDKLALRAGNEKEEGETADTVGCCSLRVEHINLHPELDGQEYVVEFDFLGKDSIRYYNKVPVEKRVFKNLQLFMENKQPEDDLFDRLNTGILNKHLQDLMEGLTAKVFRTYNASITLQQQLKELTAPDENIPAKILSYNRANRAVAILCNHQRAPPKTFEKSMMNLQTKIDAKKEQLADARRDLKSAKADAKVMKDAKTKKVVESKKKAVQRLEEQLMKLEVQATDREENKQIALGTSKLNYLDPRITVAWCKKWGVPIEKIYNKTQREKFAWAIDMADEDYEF
# Assay: DNA Topo I activity assay (Human Topoisomerase I Assay Kit)
# Format: biochemical
# Details: 10 U Topo I, supercoiled DNA, agarose gel
# Procedure: FIG. 11—Cytotoxic effects of C5-DAB-SN-38. To determine the effect of C5-DAB-SN-38 on CLBL-1 and Jurkat cells, a cell viability assay was performed using the WST-1 reagent. 6×10^4 cells were seeded and treated with increasing amounts of compound. After 48 h treatment, cell viability was assessed. […] B) On the other hand, ADC had no effect on Jurkat cells, proving the specificity of the ADC. C5 was used as control. Best-fit EC50 values of each formulation were calculated using GraphPad Prism software (version 9.2.0, San Diego, CA, USA) using the log (inhibitor) vs response (variable slope) function. D) Effects of C5-DAB-SN-38 on DNA TopoI activity. To evaluate the effects of C5-DAB-SN-38 on DNA Topo I, we evaluated its activity using the Human Topoisomerase I Assay Kit. After incubation of C5-DAB-SN-38 with 1× reaction buffer and 10 U of Topo I for 1 h at 37° C., the supercoiled DNA was added. To stop the reaction, stop loading buffer was added. DNA TopoI activity was visualized by 1% agarose gel electrophoresis […] with ethidium bromide. Relaxed DNA indicated TopoI activity while supercoiled DNA indicated an inhibition. […] Relaxed DNA and supercoiled DNA were used as positive/negative controls. C5 and SN-38 were also used as controls.
# Topo I activity on VL-DAB-SN38 was determined using the Human Topoisomerase I Assay Kit (Topogen, CO, USA) according to the manufacturer's instructions. […]
row,Molecule,effect on DNA Topo I activity
1,"CCc1c2c(nc3ccc(O)cc13)-c1cc3c(c(=O)n1C2)COC(=O)[C@]3(O)CC [SN-38, reference compound]",inhibited

# System: bEnd.3 cell monolayer
# Assay: In vitro BEB model translocation of sdAbs (western blot)
# Format: in vitro ADME, mouse
# Details: 15 μg sdAb at apex, 90 min, WB
# Procedure: FIG. 16A 15 μg of each purified sdAb was added to the apex of the transwell and incubated for 90 min.
# FIG. 16B Following incubation period, all volumes were collected from the apex and the base and analysed by WB with anti-HA antibody.
# To determine the in vitro BEB translocation efficiency of the selected VL sdAb, 15 μg of each purified antibody was added to the apex of the transwell and incubated for 15 and 90 min. The incubation time and sdAb concentration were selected based on previous optimization assays (data not shown). Following incubation, the cells were washed once with PBS and three times with TB. Evaluation of the translocation efficiency of each VL sdAb was assessed by running […] of the recovered volume from the apex and the base on a 15% SDS-PAGE acrylamide gel followed by WB analysis with HRP-conjugated […] antibody at 1:3000 (Roche). As a positive control, 100 ng of each purified VL sdAb was used. The FC5 VHH was used as a positive control. The same procedure was performed to evaluate the BEB crossing properties of each purified rabbit serum, but the incubation was performed for 15 and 60 min and the detection was performed with goat-α anti-rabbit IgG-Fc specific HRP at 1:10,000. Chemiluminescence was detected using the Chemidoc XRS+System (Bio-rad).
row,Molecule,in vitro BEB translocation
1,"RG22: rabbit derived BBB targeting VL sdAb clone, SEQ. ID 44 to 48 series; ^99mTc(CO)3-labelled in Table 1 (antibody, listed as Oryctolagus cuniculus, V domains shown, 99mTc(CO)3 label) VL: ELVLTQTPASVEAAVGGTVTINCQASQSVYNNKNLAWYQQKPGQPPKLLIYRASTLASGVPSRFSGSGSGTQFTLTISGAQCDDAATYYCQGEFSCSSGDCIAFGGGTEVVVK",increased in vitro BEB-crossing efficiency
2,"RG23: rabbit derived BBB targeting VL sdAb clone, SEQ. ID 44 to 48 series; ^99mTc(CO)3-labelled in Table 1 (antibody, listed as Oryctolagus cuniculus, V domains shown, 99mTc(CO)3 label) VL: ELVMTQTPASVSEPVGGTVTIKCQASQSIGNALAWYQQKPGQPPKLLIYGASNLESGVPSRFKGSGSGTEFTLTISDLECADAATYYCQSYYYSSSSSYGSYAFGGGTEVVVK",increased in vitro BEB-crossing efficiency
3,"RG3: rabbit derived BBB targeting VL sdAb clone, SEQ. ID 44; ^99mTc(CO)3-labelled in Table 1 (antibody, listed as Oryctolagus cuniculus, V domains shown, 99mTc(CO)3 radiolabel) VL: ELVMTQTPSPVSAAMGGTVSISCQSSKSVANNNELSWYQQKPGQPPKLLIYEASKLASGVPSRFKGSGSGTQFTLTISDVQCDDAATYYCLGDYYSSSDNAFGGGTEVVVK",increased in vitro BEB-crossing efficiency

# System: CLBL-1 cell extracts
# Assay: ELISA screening of anti-cNHL VL sdAb clones
# Format: binding, canine
# Details: clone supernatants, CLBL-1 extracts
# Procedure: After the phage display selection, in order to express and select the best anti-cNHL VL sdAbs, phagemid DNA derived from the in vivo output selection was cloned into a PT7-PL vector and transformed into an E. coli strain BL21. Then, individual clones were auto induced, and the supernatant tested in ELISA assays against CLBL-1 and Jurkat cell extracts. To select the best lead candidates, three parameters were evaluated: binding against cNHL, expression yields, and unspecific binding. […] After selection, to characterize the selected clones, the 43 best lead candidates were analysed by sanger sequencing (FIG. 6B). To get further insights of the enriched sequences during the in vivo phage display selection, we performed next generation sequencing (NGS) of the biopanning repertoires. NGS allows massive sequence analysis of the panning population, enabling a genomic assessment of the library diversity and frequency of each clone. Two samples were sequenced: biopanning from the CLBL-1 tumour models and initial immune VL sdAb cNHL library (FIG. 7). Upon bioinformatic analysis of the NGS data, we were able to determine the diversity of each sample and identify the most represented clones. A total of 34880 sequences were obtained for the biopanning from the CLBL-1 tumours. The NHL library obtained a total of 48864 sequences. The number of singletons, consisting of the sequences with a single occurrence, varied between samples, ranging from 76.8% in the library, and 33.3% in the in vivo biopanning from the CLBL-1. Through the comparison of the sequence prevalence between the biopannings and the library, we were able to verify that the number of occurrences in each sequence was higher in the biopanning clones. […] By comparing ELISA data, sanger sequencing and NGS analysis, the six best clones (A12, C8, C5, E1, E2, and B12) were produced and purified. Due to its binding characteristics and production properties, C5 sdAb clone was chosen to be thoroughly characterized and used in the development of the proposed ADC.
# To express and select anti-NHL-sdAbs, phagemid DNA encoding selected anti-cNHL sdAbs was cloned into PT7-PL (PT7-peptide leader) vector and transformed into E. coli strain BL21. Individual colonies were inoculated in 100 μl of Super Broth (SB) medium containing Overnight Express™ Autoinduction System (Novagen®) and 100 μg/ml of ampicillin and incubated overnight at 30° C. Next day, 40 μl of BugBuster (Roche) containing anti-protease cocktail-EDTA free inhibitors (Roche) were added and incubated for 30 min at 4° C. Then, plates were centrifuged at 1200 rpm and the supernatant was tested in ELISA assays. Three different conditions were assessed: binding to the sdAbs to the antigen, expression level and unspecific binding. After coating the wells with CLBL-1 cell extracts or Raji cell extracts for 1 h at 37° C., wells were blocked with 3% BSA in PBS. Then, wells were washed with PBS and clones were added and incubated for 1 h, at 37° C. Next, plates were washed and incubated with anti-HA HRP antibody (Roche). Finally, after 1 h incubation, plates were washed and ABTS (Roche) was added and optical density at 405 nm was measured at different time points. To evaluate the expression level, the same protocol was applied, excluding antigen coating.
# For unspecific binding, antigen was replaced by 3% BSA. Rabbit sera and anti-CD20 antibody were used as positive controls. BL21 cell extracts were used as negative controls. In the end, the ten best individual clones were sequenced at Eurofins company. Sequence analysis was performed using the Vector Nti software (Invitrogen). The antibody frameworks, CDRs and the amino acid numbering and sequences followed the rules described by Kabat et al. (1991) Sequences of proteins of immunological interest. Bethesda, MD, U.S. Dept. of Health and Human Services, Public Health Service, National Institutes of Health. […]
row,Molecule,ELISA signal against NHL cells
1,"A12: rabbit derived anti-cNHL VL sdAb clone, SEQ. ID. 1 (antibody, listed as Oryctolagus cuniculus, V domains shown) VL: ELVMTQTPSSVSAAVGGTATIDCQSTKSVYNNNALSWYQQKPGQPPKLLIYRASTLTSGVPSRFSGSGSGTQFTLTINDVQCDDAATYYCQGGISGSSDAPFGGGTEVVVK",best results
2,"E2: rabbit derived anti-cNHL VL sdAb clone, SEQ. ID. 5 (antibody, listed as Oryctolagus cuniculus, V domains shown) VL: ELDLTQTPPSLSASVGGTVTINCQASESISNYLAWYQQKPGQPPKLLIYGASNLESGVPSRFRGSGSGTEFTLTISDMKAEDAATFYCQSGYYTAGDLTFGAGTNVEIK",best results
3,"B12: rabbit derived anti-cNHL VL sdAb clone, SEQ. ID. 6 (antibody, listed as Oryctolagus cuniculus, V domains shown) VL: ELVLTQTPASVEAAVGGTVTIKCQASQSIGSYLAWYQQKPGQPPKLLIYGASTLASGVPSRFSGSRSDTQFSLTISDLECADAATYYCQGYYYSDSSSYVNTFGGGTEVVVK",best results
4,"C8: rabbit derived anti-cNHL VL sdAb clone, SEQ. ID. 2 (antibody, listed as Oryctolagus cuniculus, V domains shown) VL: ELVMTQTPSSVSAAVGGTVTINCRASEDIESYLAWYQQKPGQPPKRLIYGASNLASGVSSRFKGSGSGTDFTLTISDLECADAATYYCQCIVGGSTYGNVFGGGTELEIL",best results
5,"E1: rabbit derived anti-cNHL VL sdAb clone, SEQ. ID. 4 (antibody, listed as Oryctolagus cuniculus, V domains shown) VL: ELVMTQTPSPVSAAVGGTVTIACQSSQSVYSGTLLSWYQQKPGQSPKLLIHEASTLASGVPSRFKGSGSGTQFTLTISDLECADAATYYCLGGFDDDADNAFGGGTELEIL",best results
